Key:
[1] = target: T1, human CD20 (Homo sapiens CD20) (Homo sapiens, UniProt P11836 1-297); test: FACS on Raji cells, crude transfection supernatant
T1 construct: Multi-pass cell surface antigen; present on Raji, Ramos, WSU-DLCL2 cells, human CD19+ B cells, or on stably transfected CHO cells (CD20/CHO); also called hCD20
T1 sequence: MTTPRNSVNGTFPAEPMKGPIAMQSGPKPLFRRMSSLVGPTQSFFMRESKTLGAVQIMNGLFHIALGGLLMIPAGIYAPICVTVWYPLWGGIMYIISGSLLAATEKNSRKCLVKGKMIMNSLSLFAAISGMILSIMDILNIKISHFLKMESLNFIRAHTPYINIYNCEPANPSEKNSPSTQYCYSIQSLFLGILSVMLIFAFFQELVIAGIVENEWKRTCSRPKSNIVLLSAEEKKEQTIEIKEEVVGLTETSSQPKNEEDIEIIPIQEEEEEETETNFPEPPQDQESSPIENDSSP

[2] = target: T1, human CD20 (Homo sapiens CD20); test: FACS on WSU-DLCL2, Raji and Ramos cells, 10 µg/mL
[3] = target: T2, human CD37 (Homo sapiens CD37) (Homo sapiens, UniProt P11049 1-281); test: FACS, APC-labelled antibody on CD19+ B cells of human PBMCs
T2 construct: Multi-pass cell surface antigen; present on Raji, Ramos, WSU-DLCL2 cells, human B cells, or on stably transfected CHO cells (CD37/CHO); also called hCD37
T2 sequence: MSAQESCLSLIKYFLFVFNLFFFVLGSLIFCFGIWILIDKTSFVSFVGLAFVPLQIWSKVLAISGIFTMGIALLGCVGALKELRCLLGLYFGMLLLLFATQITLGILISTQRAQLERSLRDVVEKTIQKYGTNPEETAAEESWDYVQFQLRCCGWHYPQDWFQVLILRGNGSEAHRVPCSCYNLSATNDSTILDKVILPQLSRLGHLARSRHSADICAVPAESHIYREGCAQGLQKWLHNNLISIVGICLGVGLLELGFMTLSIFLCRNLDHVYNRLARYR

[4] = target: T3, cynomolgus monkey CD37 (Macaca fasicularis CD37) (cynomolgus monkey (Macaca fasicularis …, UniProt P11049 1-281 (human entry))); test: FACS, APC-labelled antibody on CD19+ B cells of cynomolgus monkey PBMCs
T3 construct: On CD20+ or CD19+ B cells in cynomolgus monkey PBMCs; also called cynoCD37
T3 chain: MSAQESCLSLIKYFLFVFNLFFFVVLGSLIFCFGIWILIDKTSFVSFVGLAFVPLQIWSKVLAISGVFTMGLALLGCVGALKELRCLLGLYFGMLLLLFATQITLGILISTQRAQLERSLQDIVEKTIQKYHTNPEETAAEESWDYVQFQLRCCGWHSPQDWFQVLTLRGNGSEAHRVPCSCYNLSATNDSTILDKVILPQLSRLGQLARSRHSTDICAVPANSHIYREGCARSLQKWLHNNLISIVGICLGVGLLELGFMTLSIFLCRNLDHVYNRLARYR

[5] = target: T3, cynomolgus monkey CD37 (Macaca …); test: FACS, ratio of EC50 on cynomolgus monkey B cells to EC50 on human B cells
[6] = target: T1, human CD20 (Homo sapiens CD20); test: FACS on CHO cells stably expressing hCD20 (CD20/CHO)
[7] = target: T2, human CD37 (Homo sapiens CD37); test: FACS on CHO cells stably expressing hCD37 (CD37/CHO), EC50 of Geo MFI
[8] = target: T1, human CD20 (Homo sapiens CD20); test: FACS on Raji cells, titration
[9] = target: T2, human CD37 (Homo sapiens CD37); test: FACS on WSU-DLCL2, Raji and Ramos cells, 10 µg/mL
[10] = target: T3, cynomolgus monkey CD37 (Macaca …); test: FACS on CD20+ gated cynomolgus monkey PBMCs
[11] = target: T3, cynomolgus monkey CD37 (Macaca …); test: FACS on CD20+ gated cynomolgus monkey PBMCs, compared with anti-hCD37 Ab1

B1: anti-hCD20 Ab1-T6 (antibody, human IgG1, kappa, name in Kabat numbering, V domains shown)
VH: QVQLVQSGAEVKKPGSSVKVSCKASGYTFTSYNMHWVRQAPGQGLEWMGRIYPGNGDTSYNQKFQGRVTLTVDKSSSTAYMELSSLRSEDTAVYFCARVVYYSNSYWYFDVWGTGTMVTVSS
VL: EIVLTQSPDFQSVTPKEKVTITCRASSSVSYMHWYQQKPDQSPKPLIYAPSNLASGVPSRFSGSGSGTDYTLTINSLEAEDAATYYCQQWSFNPPTFGAGTKLEIKR
notes: IgG1; also called variant #3
- binding result [1]: binds

B2: anti-hCD20 Ab1-T8 (antibody, human IgG1, kappa, name in Kabat numbering, V domains shown)
VH: QVQLVQSGAEVKKPGSSVKVSCKASGYTFTSYNMHWVRQAPGQGLEWMGAIYPGNGDTDYNQKFQGRVTLTVDKSSSTAYMELSSLRSEDTAVYFCARVVYYSNSYWYFDVWGTGTMVTVSS
VL: EIVLTQSPDFQSVTPKEKVTITCRASSSVSYMHWYQQKPDQSPKPLIYAPSNLASGVPSRFSGSGSGTDYTLTINSLEAEDAATYYCQQWSFNPPTFGAGTKLEIKR
notes: IgG1; also called variant #8
- binding result [1]: binds

B3: anti-hCD20 Ab1-T7 (antibody, human IgG1, kappa, name in Kabat numbering, V domains shown)
VH: QVQLVQSGAEVKKPGSSVKVSCKASGYTFTSYNMHWVRQAPGQGLEWMGAIYPGEGDTSYNQKFQGRVTLTVDKSSSTAYMELSSLRSEDTAVYFCARVVYYSNSYWYFDVWGTGTMVTVSS
VL: EIVLTQSPDFQSVTPKEKVTITCRASSSVSYMHWYQQKPDQSPKPLIYAPSNLASGVPSRFSGSGSGTDYTLTINSLEAEDAATYYCQQWSFNPPTFGAGTKLEIKR
notes: IgG1; also called variant #7
- binding result [2]: binds

B4: anti-hCD37 Ab1.A1 (antibody, human IgG1, kappa)
heavy: not shown
light: DIQMTQSPSSLSASVGDRVTITCRTSENVYNYLAWYQQKPGKAPKLLIYFAKTLAEGVPSRFSGSGSGTQFTLTISSLQPEDSASYYCQHHSDNPWTFGGGTELEIKRTVAAPSVFIFPPSDEQLKSGTASVVCLLNNFYPREAKVQWKVDNALQSGNSQESVTEQDSKDSTYSLSSTLTLSKADYEKHKVYACEVTHQGLSSPVTKSFNRGEC
notes: anti-hCD37 Ab1 with VH-M34V + VL-S31N; also called anti-CD37 Ab1.A1
- EC50 [3]: 4.05 nM
- EC50 [4]: 254 nM
- fold less potent than its binding of human B cells [5]: 62.7 fold

B5: anti-hCD37 Ab1.A1.1 (antibody)
heavy: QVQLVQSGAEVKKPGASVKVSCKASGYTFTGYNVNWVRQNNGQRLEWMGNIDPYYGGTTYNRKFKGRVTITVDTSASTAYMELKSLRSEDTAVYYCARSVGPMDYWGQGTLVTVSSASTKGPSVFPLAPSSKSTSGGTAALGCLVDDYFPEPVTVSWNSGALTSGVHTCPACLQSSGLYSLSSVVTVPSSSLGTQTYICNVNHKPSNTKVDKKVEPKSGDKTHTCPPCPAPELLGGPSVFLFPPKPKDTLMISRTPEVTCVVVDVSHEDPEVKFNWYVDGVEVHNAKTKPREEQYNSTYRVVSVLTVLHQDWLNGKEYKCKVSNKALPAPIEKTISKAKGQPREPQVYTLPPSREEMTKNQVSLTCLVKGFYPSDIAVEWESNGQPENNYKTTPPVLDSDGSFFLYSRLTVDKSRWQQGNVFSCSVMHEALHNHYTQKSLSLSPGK
light: DIQMTQSPSSLSASVGDRVTITCRTSENVYNYLAWYQQKPGKAPKLLIYFAKTLAEGVPSRFSGSGSGTQFTLTISSLQPEDSASYYCQHHSDNPWTFGGGTELEIKRTVAAPSVFIFPPSDEQLKSGTAKVVCLLNNFYPREAKVQWKVDNALQSGNSCECVTEQDSKDSTYSLSSTLTLSKADYEKHKVYACEVTHQGLSSPVTKSFNRGES
notes: Ab1.A1 with HC K147D, F170C, V173C, C220G, K409R and LC S131K, Q160C, S162C, C214S; also called α-CD37 Ab1.A1.1
- binding result [6]: no binding (tested: about 0.0002 nM to about 30 nM)
- EC50 [7]: 1.33 nM

B6: rituximab (antibody, V domains shown)
VH: QVQLQQPGAELVKPGASVKMSCKASGYTFTSYNMHWVKQTPGRGLEWIGAIYPGNGDTSYNQKFKGKATLTADKSSSTAYMQLSSLTSEDSAVYYCARSTYYGGDWYFNVWGAGTTVTVSA
VL: QIVLSQSPAILSASPGEKVTMTCRASSSVSYIHWFQQKPGSSPKPWIYATSNLASGVPVRFSGSGSGTSYSLTISRVEAEDAATYYCQQWTSNPPTFGGGTKLEIK
- EC50 [8]: 18.2 nM

B7: anti-hCD37 Ab1 (antibody, human IgG1, kappa, V domains shown)
VH: QVQLVQSGAEVKKPGASVKVSCKASGYTFTGYNMNWVRQNNGQRLEWMGNIDPYYGGTTYNRKFKGRVTITVDTSASTAYMELKSLRSEDTAVYYCARSVGPMDYWGQGTLVTVSS
VL: DIQMTQSPSSLSASVGDRVTITCRTSENVYSYLAWYQQKPGKAPKLLIYFAKTLAEGVPSRFSGSGSGTQFTLTISSLQPEDSASYYCQHHSDNPWTFGGGTELEIKR
notes: Humanized IgG1/kappa derived from G28.1; also called aCD37 Ab1
- binding result [9]: binds

B8: anti-hCD37 Ab1.N19 (antibody, human IgG1, kappa, name in Kabat numbering, V domains shown)
VH: QVQLVQSGAEVKKPGASVKVSCKASGYTFTGYNLNWVRQNNGQRLEWMGNIDPYYGGTTYNRKFQGRVTITVDTSASTAYMELKSLRSEDTAVYYCARSVGPLDYWGQGTLVTVSS
VL: DIQMTQSPSSLSASVGDRVTITCRTSENVYNYLAWYQQKPGKAPKLLIYFAKSLAEGVPSRFSGSGSGTQFTLTISSLQPEDSASYYCQHHGDNPWTFGGGTELEIKR
notes: IgG1 variant of anti-hCD37 Ab1
- binding result [10]: binds

B9: anti-hCD37 Ab1.N18 (antibody, human IgG1, kappa, name in Kabat numbering, V domains shown)
VH: QVQLVQSGAEVKKPGASVKVSCKASGYTFTGYNLNWVRQNNGQRLEWMGNIDPYYGGTTYNRKFQGRVTITVDTSASTAYMELKSLRSEDTAVYYCARSVGPMDYWGQGTLVTVSS
VL: DIQMTQSPSSLSASVGDRVTITCRTSENVYNYLAWYQQKPGKAPKLLIYFAKTIAEGVPSRFSGSGSGTQFTLTISSLQPEDSASYYCQHHSENPWTFGGGTELEIKR
notes: as for B8
- binding result [11]: binds

B10: anti-hCD37 Ab1.N12 (antibody, human IgG1, kappa, V domains shown)
VH: QVQLVQSGAEVKKPGASVKVSCKASGYTFTGYNLNWVRQNNGQRLEWMGNIDPYYGGTTYNRKFQGRVTITVDTSASTAYMELKSLRSEDTAVYYCARSVGPMDYWGQGTLVTVSS
VL: DIQMTQSPSSLSASVGDRVTITCRTSENVYSYLAWYQQKPGKAPKLLIYFAKSLAEGVPSRFSGSGSGTQFTLTISSLQPEDSASYYCQHHSENPWTFGGGTELEIKR
notes: anti-hCD37 Ab1 with VH M34L + K64Q and VL T53S + D93E; also called anti-CD37 Ab1.N12
- binding result [10]: binds

B11: anti-hCD20 Ab1.2.2 (antibody, human IgG4 S228P, kappa)
heavy: QVQLVQSGAEVKKPGSSVKVSCKASGYTFTSYNMHWVRQAPGQGLEWMGAIYPGNGDTSYNQKFQGRVTLTVDKSSSTAYMELSSLRSEDTAVYFCARVVYYSNSYWYFDVWGTGTMVTVSSASTKGPSVFPLAPCSRSTSESTAALGCLVKDYFPEPVTVSWNSGALTSGVHTFPAVLQSSGLYSLSSVVTVPSSSLGTKTYTCNVDHKPSNTKVDKRVESKYGPPCPPCPAPELLGGPDVFLFPPKPKDTLMISRTPEVTCVVVDVSHEDPEVKFNWYVDGVEVHNAKTKPREEQYNATYRVVSVLTVLHQDWLNGKEYKCKVSNKALPAPIEKTISKAKGQPREPQVYTLPPSREMTKNQVSLTCLVKGFYPSDIAVEWESNGQPENNYKTTPPVLDSDGSFFLYSKLTVDKSRWQQGNVFSCSVMHEALHNHYTQKSLSLSPGK
light: EIVLTQSPDFQSVTPKEKVTITCRASSSVSYMHWYQQKPDQSPKPLIYAPSNLASGVPSRFSGSGSGTDYTLTINSLEAEDAATYYCQQWSFNPPTFGAGTKLEIKRTVAAPSVFIFPPSDEQLKSGTASVVCLLNNFYPREAKVQWKVDNALQSGNSQESVTEQDSKDSTYSLSSTLTLSKADYEKHKVYACEVTHQGLSSPVTKSFNRGEC
notes: Ab1.2 with S239D, S298A
- EC50 [8]: 26.3 nM

— patent US20240059785A1 (QILU PUGET SOUND BIOTHERAPEUTICS, published 2024)
